Reference: article PMC5130018 (2016)

B1: WH-biotin (peptide WH with GGGK-biotin at the carboxyl terminal) [modified: biotin on the C-terminal lysine (GGGK-biotin); biotin on the C-terminal lysine (GGGK-biotin)] / mouse Clec9a expressed on HEK-293T cells (pIRES2-EGFP-mClec9a) … (parent complex)
chain 1: WPRFHSSVFHTHGGGK
chain 2: MHAEEIYTSLQWDIPTSEASQKCQSPSKCSGAWCVVTMISCVVCMGLLATSIFLGIKFFQVSSLVLEQQERLIQQDTALVNLTQWQRKYTLEYCQALLQRSLHSGTDASTGPVLLTSPQMVPQTLDSKETGSDCSPCPHNWIQNGKSCYYVFERWEMWNISKKSCLKEGASLFQIDSKEEMEFISSIGKLKGGNKYWVGVFQDGISGSWFWEDGSSPLSDLLPAERQRSAGQICGYLKDSTLISDKCDSWKYFICEKKAFGSCI

Variants of: B1
Experiment: flow cytometry on cells; parent: 49.6

response | Variant
50.6 % of cells in upper-right quadrant (SA+ EGFP+) | chain 2 I160A
11.3 % of cells in upper-right quadrant (SA+ EGFP+) | chain 2 D248A
69.6 % of cells in upper-right quadrant (SA+ EGFP+) | chain 2 R154A
52.5 % of cells in upper-right quadrant (SA+ EGFP+) | chain 2 W155A
7.85 % of cells in upper-right quadrant (SA+ EGFP+) | chain 2 W250A
74.2 % of cells in upper-right quadrant (SA+ EGFP+) | chain 2 M157A
45.4 % of cells in upper-right quadrant (SA+ EGFP+) | chain 2 Y252A
